Test: SEC; HiLoad 16/60 Superdex 75 pg; protein purified by Ni2+-NTA injected at 0.5 mM

Substance	area of the peak at 63 min (elutes as a dimer would), percent of monomer peak area
mClavGR2	6.7% vs. 25.8% of monomer peak area
mMaple	6.7% vs. 25.8% of monomer peak area

Source: PMC3519878
